Columns and labels:
[1] = biological target: T1, wild-type mouse serum albumin with C-terminal GST (mouse, UniProt P07724 25-608); assay: SPR; Biacore T200; albumin variants amine-coupled on CM5 (~200 or 500 RU); monomeric His-tagged hFcRn or mFcRn injected in serial dilutions; phosphate buffer (177 mM phosphate, 85 mM NaCl, 0.05% Tween 20) pH 5.5, 30 µl/min, 25 °C; 1:1 Langmuir model; details: both partners purified
T1 construct: mouse serum albumin; also called MSA WT; WT MSA; source: HEK293E, transiently transfected, purified from supernatant (GSTrap FF); not shown: GST (Schistosoma japonicum), C-terminal, kept

[2] = biological target: T1, wild-type mouse serum albumin with …; assay: SPR; receptor binding to immobilised albumin at pH 5.5 in the presence of 0.005% Tween-20 instead of 0.05%; details: both partners purified

T1 sequence (P07724 25-608): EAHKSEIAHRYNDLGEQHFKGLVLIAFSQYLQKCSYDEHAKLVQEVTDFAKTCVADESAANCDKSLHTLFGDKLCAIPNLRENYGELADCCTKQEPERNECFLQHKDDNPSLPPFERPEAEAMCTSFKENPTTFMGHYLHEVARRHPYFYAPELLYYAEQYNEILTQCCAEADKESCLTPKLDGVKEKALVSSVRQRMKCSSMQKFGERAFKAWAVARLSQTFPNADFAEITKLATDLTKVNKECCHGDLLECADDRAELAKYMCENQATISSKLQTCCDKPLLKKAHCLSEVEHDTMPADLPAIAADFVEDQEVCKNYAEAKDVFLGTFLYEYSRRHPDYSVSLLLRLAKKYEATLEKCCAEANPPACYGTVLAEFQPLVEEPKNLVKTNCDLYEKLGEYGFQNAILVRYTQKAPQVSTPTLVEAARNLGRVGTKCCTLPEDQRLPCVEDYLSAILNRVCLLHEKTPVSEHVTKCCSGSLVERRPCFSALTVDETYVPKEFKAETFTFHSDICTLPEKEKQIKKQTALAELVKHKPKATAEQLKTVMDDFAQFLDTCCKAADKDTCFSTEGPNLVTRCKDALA

B1: soluble monomeric His-tagged mouse neonatal Fc receptor (mFcRn) (receptor)
chain: SETRPPLMYHLTAVSNPSTGLPSFWATGWLGPQQYLTYNSLRQEADPCGAWMWENQVSWYWEKETTDLKSKEQLFLEALKTLEKILNGTYTLQGLLGCELASDNSSVPTAVFALNGEEFMKFNPRIGNWTGEWPETEIVANLWMKQPDAARKESEFLLNSCPERLLGHLERGRRNLEWKEPPSMRLKARPGNSGSSVLTCAAFSFYPPELKFRFLRNGLASGSGNCSTGPNGDGSFHAWSLLEVKRGDEHHYQCQVEHEGLAQPLTVDLDSSARSS
b2m: IQKTPQIQVYSRHPPENGKPNILNCYVTQFHPPHIEIQMLKNGKKIPKVEMSDMSFSKDWSFYILAHTEFTPTETDTYACRVKHASMAEPKTVYWDRDM
notes: neonatal Fc receptor heavy chain, mouse, soluble form; beta2-microglobulin, non-covalently associated with the heavy chain; Surmised: the His tag sits on the truncated heavy chain; also called mouse FcRn; the mouse receptor
B1 gave a Kd [1] of 547 nM, a koff [1] of 0.0164 s⁻¹ and a kon [1] of 30000 M⁻¹ s⁻¹. The “fold change of KD in 0.005% against 0.05% Tween-20” value [2] was 1.7 fold.

— PMC6168492, “Human and mouse albumin bind their respective neonatal Fc receptors differently” (Scientific Reports, 2018)
